According to patent US11472877 (Alector, dated 2022):

T1: human TREM2 on BWZ cells (human, UniProt Q9NZC2 19-230)
T1 construct: whole, on cells; not tied to the cell line; also called BWZ Human TREM2
T1 sequence (looked up): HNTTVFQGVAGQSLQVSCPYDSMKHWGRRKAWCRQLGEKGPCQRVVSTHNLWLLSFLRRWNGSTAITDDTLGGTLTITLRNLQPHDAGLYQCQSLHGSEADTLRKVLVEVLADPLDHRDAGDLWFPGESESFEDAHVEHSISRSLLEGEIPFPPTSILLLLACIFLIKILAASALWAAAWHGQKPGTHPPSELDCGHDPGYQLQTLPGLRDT

T2: mouse TREM2 on BWZ cells (mouse, UniProt Q99NH8 19-227)
T2 construct: whole, on cells; also called BWZ Mouse TREM2
T2 sequence (looked up): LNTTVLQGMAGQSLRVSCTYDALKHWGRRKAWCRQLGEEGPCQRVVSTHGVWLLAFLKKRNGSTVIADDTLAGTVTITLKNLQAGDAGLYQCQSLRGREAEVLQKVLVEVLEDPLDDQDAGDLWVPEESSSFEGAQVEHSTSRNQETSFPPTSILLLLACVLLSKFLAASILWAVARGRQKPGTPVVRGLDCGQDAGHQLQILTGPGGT

T3: mouse TREM1 on CHO cells (mouse, UniProt Q9JKE2 21-230)
T3 construct: also called CHO-mT1
T3 sequence: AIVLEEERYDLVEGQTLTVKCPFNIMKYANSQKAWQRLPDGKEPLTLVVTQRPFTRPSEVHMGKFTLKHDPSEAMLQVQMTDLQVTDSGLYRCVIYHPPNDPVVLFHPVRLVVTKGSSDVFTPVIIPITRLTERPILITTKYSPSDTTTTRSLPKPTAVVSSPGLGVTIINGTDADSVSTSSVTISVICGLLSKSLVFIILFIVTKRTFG


Experiments:
human TREM2 on BWZ cells [1] = molecular target: T1, human TREM2 on BWZ cells; experiment: FACS, BWZ cells
mouse TREM2 on BWZ cells [2] = molecular target: T2, mouse TREM2 on BWZ cells; experiment: FACS, BWZ cells
mouse TREM2 on BWZ cells [3] = molecular target: T2, mouse TREM2 on BWZ cells; experiment: FACS, BWZ mouse TREM2
mouse TREM1 on CHO cells = molecular target: T3, mouse TREM1 on CHO cells; experiment: FACS, CHO mouse TREM1
human TREM2 on BWZ cells [4] = molecular target: T1, human TREM2 on BWZ cells; experiment: FACS, BWZ human TREM2

binding result (human TREM2 on BWZ cells [1]) | binding result (mouse TREM2 on BWZ cells [2]) | FOB Fold Over Background (mouse TREM2 on BWZ cells [3]) [fold] | FOB Fold Over Background (mouse TREM1 on CHO cells) [fold] | FOB Fold Over Background (human TREM2 on BWZ cells [4]) [fold] | Binder
no binding | no binding | 1 | 0.7 | 0.6 | T1-20 (antibody, IgG1, V domains shown, huIgG1; also called TI-20; ADI-19087) VH: EVQLVESGGGLVQPGGSLRLSCAASGFTFSSYWMSWVRQAPGKGLEWVANIKQDGSEKYYVDSVKGRFTISRDNAKNSLYLQMNSLRAEDTAVYYCARDAPQLGLDVWGQGTMVTVSS VL: not shown
no binding | no binding | – | – | – | T1-7 (antibody, IgG1, V domains shown, huIgG1; also called TI-7; ADI-19073) VH: QVQLVQSGAEVKKPGASVKVSCKASGYTFTSYYMHWVRQAPGQGLEWMGIINPSGGSTSYAQKFQGRVTMTRDTSTSTVYMELSSLRSEDTAVYYCARGLIYGDAFDYWGQGTLVTVSS VL: not shown
no binding | no binding | 1.2 | 1 | 0.7 | T1-16 (antibody, IgG1, V domains shown, huIgG1; also called TI-16; ADI-19083) VH: EVQLVESGGGLVQPGRSLRLSCAASGFTFDDYAMHWVRQAPGKGLEWVSGISWNSGSIGYADSVKGRFTISRDNAKNSLYLQMNSLRAEDTALYYCAKGPRMSGWWADWGQGTLVTVSS VL: DIQMTQSPSSVSASVGDRVTITCRASQGISSWLAWYQQKPGKAPKLLIYAASSLQSGVPSRFSGSGSGTDFTLTISSLQPEDFATYYCQQADTLPITFGGGTKVEIK
no binding | no binding | 1.2 | 1.3 | 1.4 | T1-24 (antibody, IgG1, V domains shown, huIgG1; also called TI-24; ADI-19150) VH: EVQLVESGGGLVQPGRSLRLSCAASGFTFDDYAMHWVRQAPGKGLEWVSGITWNSGSIGYADSVKGRFTISRDNAKNSLYLQMNSLRAEDTALYYCAKGPRLLSALDVWGQGTMVTVSS VL: DIQMTQSPSTLSASVGDRVTITCRASQSISSWLAWYQQKPGKAPKLLIYKASSLESGVPSRFSGSGSGTEFTLTISSLQPDDFATYYCQQDSIYPITFGGGTKVEIK
no binding | no binding | – | – | – | T1-33 (antibody, IgG1, V domains shown, huIgG1; also called TI-33; ADI-19107) VH: QVQLVESGGGVVQPGRSLRLSCAASGFTFSNYGMHWVRQAPGKGLEWVAVIWYDGSNKYYADSVKGRFTISRDNSKNTLYLQMNSLRAEDTAVYYCAKGSTHRGSAYGMDVWGQGTTVTVSS VL: DIQMTQSPSSVSASVGDRVTITCRASQGISSWLAWYQQKPGKAPKLLIYAASSLQSGVPSRFSGSGSGTDFTLTISSLQPEDFATYYCQQINDHPFTFGGGTKVEIK
no binding | no binding | 0.8 | 0.9 | 0.5 | T1-19 (antibody, IgG1, V domains shown, huIgG1; also called TI-19; ADI-19086) VH: EVQLVESGGGLVQPGGSLRLSCAASGFTFSDHHMDWVRQAPGKGLEWVGRTRNKANSYTTEYAASVKGRFTISRDDSKNSLYLQMNSLKTEDTAVYYCARGPLGYKLWGQGTLVTVSS VL: DIQMTQSPSSVSASVGDRVTITCRASQGISSWLAWYQQKPGKAPKLLIYAASNLQSGVPSRFSGSGSGTDFTLTISSLQPEDFATYYCQQANSFPLTFGGGTKVEIK
no binding | no binding | 1.2 | 1 | 1 | T1-23 (antibody, IgG1, V domains shown, huIgG1; also called TI-23; ADI-19090) VH: EVQLVESGGGLVQPGRSLRLSCAASGFTFDDYAMHWVRQAPGKGLEWVSGITWNSGSIGYADSVKGRFTISRDNAKNSLYLQMNSLRAEDTALYYCAKGPRLLSALDVWGQGTMVTVSS VL: DIQMTQSPSTLSASVGDRVTITCRASQSIGSWLAWYQQKPGKAPKLLIYKASSLESGVPSRFSGSGSGTEFTLTISSLQPDDFATYYCQQHQSFSPTFGGGTKVEIK
no binding | no binding | – | – | – | T1-11 (antibody, IgG1, V domains shown, huIgG1; also called TI-11; ADI-19078) VH: QLQLQESGPGLVKPSETLSLTCTVSGGSISSSSYYWGWIRQPPGKGLEWIGSIYYSGSTYYNPSLKSRVTISVDTSKNQFSLKLSSVTAADTAVYYCARSGEYGFDLWGRGTLVTVSS VL: not shown
no binding | no binding | – | – | – | T1-5 (antibody, IgG1, V domains shown, huIgG1; also called TI-5; ADI-19071) VH: QVQLVQSGAEVKKPGASVKVSCKASGYTFTSYYMHWVRQAPGQGLEWMGVINPSGGSTSYAQKFQGRVTMTRDTSTSTVYMELSSLRSEDTAVYYCARESDGIDSYFDYWGQGTLVTVSS VL: not shown
no binding | no binding | 0.9 | 0.5 | 0.5 | T1-21 (antibody, IgG1, V domains shown, huIgG1; also called TI-21; ADI-19088) VH: EVQLVESGGGLVQPGGSLRLSCAASGFTFSSYSMNWVRQAPGKGLEWVSYISSSSSTIYYADSVKGRFTISRDNAKNSLYLQMNSLRAEDTAVYYCARGGPLGYGDYKGMDVWGQGTTVTVSS VL: DIQLTQSPSSLSASVGDRVTITCRASQSISSFLNWYQQKPGKAPKLLIYAASSLQSGVPSRFSGSGSGTDFTLTISSLQPEDFATYYCQQSYSDLTFGGGTKVEIK
no binding | no binding | – | – | – | T1-12 (antibody, IgG1, V domains shown, huIgG1; also called TI-12; ADI-19079) VH: QLQLQESGPGLVKPSETLSLTCTVSGGSISSSSYYWGWIRQPPGKGLEWIGSIYYSGSTYYNPSLKSRVTISVDTSKNQFSLKLSSVTAADTAVYYCARGGGYPWEAFDYWGKGTTVTVSS VL: EIVLTQSPATLSLSPGERATLSCRASQSVSSYLAWYQQKPGQAPRLLIYDASNRATGIPARFSGSGSGTDFTLTISSLEPEDFAVYYCQQYTSWPLTFGGGTKVEIK
no binding | no binding | – | – | – | T1-14 (antibody, IgG1, V domains shown, huIgG1; also called TI-14; ADI-19081) VH: QVQLVESGGGVVQPGRSLRLSCAASGFTFSSYGMHWVRQAPGKGLEWVAVISYDGSNKYYADSVKGRFTISRDNSKNTLYLQMNSLRAEDTAVYYCARRSSGDYLDVWGQGTMVTVSS VL: not shown
no binding | no binding | – | – | – | T1-34 (antibody, IgG1, V domains shown, huIgG1; also called TI-34; ADI-19108) VH: EVQLVESGGGLVKPGGSLRLSCAASGFTFSSYSMNWVRQAPGKGLEWVSSISSSSNYIYYADSVKGRFTISRDNAKNSLYLQMNSLKAEDTAVYYCARRPDDRRGLFQHWGQGTLVTVSS VL: DIQMTQSPSTLSASVGDRVTITCRASQSINSWLAWYQQKPGKAPKLLISDASSLESGVPSRFSGSGSGTEFTLTISSLQPDDFATYYCQQYGPYPYTFGGGTKVEIK
no binding | no binding | – | – | – | T1-17 (antibody, IgG1, V domains shown, huIgG1; also called TI-17; ADI-19084) VH: QVQLQESGPGLVKPSETLSLTCTVSGGSISSYYWSWIRQPPGKGLEWIGSIYYSGSTNYNPSLKSRVTISVDTSKNQFSLKLSSVTAADTAVYYCARGAPGGRHNWFDPWGQGTLVTVSS VL: DIQMTQSPSSLSASVGDRVTITCQASQDISNYLNWYQQKPGKAPKLLIYDASNLATGVPSRFSGSGSGTDFTFTISSLQPEDIATYYCQQSDIHPRTFGGGTKVEIK
no binding | no binding | 1.2 | 0.5 | 0.7 | T1-13 (antibody, IgG1, V domains shown, huIgG1; also called TI-13; ADI-19080) VH: EVQLVESGGGLVKPGGSLRLSCAASGFTFSSYSMNWVRQAPGKGLEWVSSISSSSNYIYYADSVKGRFTISRDNAKNSLYLQMNSLRAEDTAVYYCARGRYRRTGSLDVWGQGTMVTVSS VL: EIVLTQSPGTLSLSPGERATLSCRASQSVSSSFLAWYQQKPGQAPRLLIYGASSRATGIPDRFSGSGSGTDFTLTISRLEPEDFAVYYCQQLDSHPPTFGGGTKVEIK
no binding | no binding | – | – | – | T1-22 (antibody, IgG1, V domains shown, huIgG1; also called TI-22; ADI-19089) VH: QVQLQESGPGLVKPSETLSLTCTVSGGSISSYYWSWIRQPPGKGLEWIGHIYYSGSTNYNPSLKSRVTISVDTSKNQFSLKLSSVTAADTAVYYCARDAGRYYGSSSSWYFDLWGRGTLVTVSS VL: EIVLTQSPGTLSLSPGERATLSCRASQSVSSSYLAWYQQKPGQAPRLLIYGASSRATGIPDRFSGSGSGTDFTLTISRLEPEDFAVYYCQQYLIPPITFGGGTKVEIK
no binding | no binding | – | – | – | T1-15 (antibody, IgG1, V domains shown, huIgG1; also called TI-15; ADI-19082) VH: EVQLVESGGGLVKPGGSLRLSCAASGFTFSSYSMNWVRQAPGKGLEWVSSISSSSSYIYYADSVKGRFTISRDNAKNSLYLQMNSLRAEDTAVYYCARRGGSYDAFQHWGQGTLVTVSS VL: EIVLTQSPGTLSLSPGERATLSCRASQSVSSSYLAWYQQKPGQAPRLLIYGASSRATGIPDRFSGSGSGTDFTLTISRLEPEDFAVYYCQQAFISPPTFGGGTKVEIK
